{"source": "patent US20100196398A1", "about": "(AstraZeneca / MedImmune, published 2010)", "binders": {"B1": {"name": "fully human monoclonal antibody 6A6 (antibody, V domains shown)", "VH": "EVQLLESGGGLVQPGGSLRLSCAASGFTFSSYAMSWVRQAPGKGLEWVSTISGGGHSTYYADSVKGRFTISRDNSKNTLYLQMNSLRAEDTAVYYCARIAPAGPHFDYWGQGTLVTVSS", "VL": "NFMLTQPHSVSESPGKTVTFSCTRSSGSIASNFVQWYQQRPGSSPTTVIYEHNQRPSGVPDRFSGSIDSSSSSASLTISGLKTEDEADYYCQFYDRNSHWVFGGGTKLTVL", "notes": "XenoMouse hybridoma antibody of Campaign 2 (IgG2 and IgG4 strains); also called 6A6.2"}, "B2": {"name": "fully human monoclonal antibody 6B1 (antibody, V domains shown)", "VH": "QVQLVESGGGVVQPGRSLRLSCAASGFTFSSYGMHWVRQAPGKGLEWVAVIWYDGSNKYYADSVKGRFTISRDNSKNTLYLQMNSLRAEDTAVYYCVRDYSSGWYWGQGTLVTVSS", "VL": "SYELTQPPSVSVSPGQTARITCSGDALPKKYAYWYQQKSGQAPVLVIYEDSKRPSGIPERFSGSSSGTMATLTISGAQVEDEADYSCYSIDSSVNHVVFGGGTKLTVL", "notes": "XenoMouse hybridoma antibody of Campaign 2 (IgG2 and IgG4 strains); also called 6B1.1"}, "B3": {"name": "fully human monoclonal antibody 6B10 (antibody, V domains shown)", "VH": "QEQLVESGGGVVQPGRSLRLSCTASGFTFSNYGIHWVRQAPGKGLEWVTVISYDGSKKYYADSVKGRFTISRDNSKNTLYLQMNSLRAEDTAVYYCARAFSTMVRGVDHWGQGTLVTVSS", "VL": "DIQMTQSPSSLSASVGDRVTITCQASQDIYKSLNWYQQRPGKAPNLLIYDASNLETGVPSRFSGSGSGTDFTFTISSLQPEDFARYFCQQYDNLPLTFGGGTRVEIK", "notes": "XenoMouse hybridoma antibody of Campaign 2 (IgG2 and IgG4 strains); also called 6B10.1; mAb 6B10"}, "B4": {"name": "fully human monoclonal antibody 4.120 (antibody, V domains shown)", "VH": "QVQLQESGPGLVKPSETLSLTCTVSGGSISSYYWSWIRQPAGKGLEWIGRIYTSGSTNYNPSLKSRVTMSVDTSKNQFSLKLSSVTAADTAVYYCARRDIGATIKGFDYWGQGTLVTVSS", "VL": "not shown", "notes": "XenoMouse hybridoma antibody of Campaign 1 (IgG1 and IgG4 strains immunised with soluble CD105); also called mAb 4.120"}, "B5": {"name": "fully human monoclonal antibody 10C9 (antibody, V domains shown)", "VH": "QVQLVESGGGVVQPGRSLRLSCAASGFTFRSYGMHWVRQAPGKGLEWVAVIWYDGSNKYYADSVKGRFTISRDNSKNTLDLQMNSLRAEDTAVYYCARDRIAAARYYNGMDVWGQGTTVTVSS", "VL": "not shown", "notes": "XenoMouse hybridoma antibody of Campaign 2 (IgG2 and IgG4 strains); also called 10C9.2"}, "B6": {"name": "fully human monoclonal antibody 4D4 (antibody, V domains shown)", "VH": "QVQLVESGGGVVQPGRSLRLSCAASGFTFSSYGMHWVRQAPGKGLEWVAVIWYDGSNKYYADSVKGRFTISRDNSKNTLYLQMNSLRAEDTAVYYCARVLGATGGYYYYYGMDVWGQGTTVTVSS", "VL": "not shown", "notes": "XenoMouse hybridoma antibody of Campaign 2 (IgG2 and IgG4 strains); also called 4D4.1"}, "B7": {"name": "fully human monoclonal antibody 4.37 (antibody, V domains shown)", "VH": "QVQLVESGGGVVQPGRSLRLSCAASGFTFSDYGMHWVRQAPGKGLEWVAVIWYDGSNKYYADSVKGRFTISRDNSKNTLYLQMNSLRAEDTAVYYCARAAGFYYYYGMDVWGQGTTVTVSS", "VL": "not shown", "notes": "XenoMouse hybridoma antibody of Campaign 1 (IgG1 and IgG4 strains immunised with soluble CD105); also called mAb 4.37; 4.37κ"}, "B8": {"name": "fully human monoclonal antibody 11H2 (antibody, V domains shown)", "VH": "QVQLVESGGGVVQPGRSLRLSCAASGFSFSSYGMHWVRQAPGKGLDWVAIIWYDGSYKYYADSVKGRFTISRDNSKNTLSLQMNSLRAEDTAVYYCARDGKYPFDYWGQGTLVTVSS", "VL": "SYVLTQPPSVSVAPGQTARITCGGNNIGSKSVHWYQQKPGQAPVLVVYDDSDRPSGIPERFSGSNSGNTATLTISRVEAGDEADYYCQVWDRSSDHVVFGGGTKLTVL", "notes": "XenoMouse hybridoma antibody of Campaign 2 (IgG2 and IgG4 strains); also called 11H2.1"}, "B9": {"name": "fully human monoclonal antibody 9H10 (antibody, V domains shown)", "VH": "QVQLVESGGGVVQPGRSLRLSCAASGFAFINYGMHWVRQAPGKGLDWVAVISYDGSNKYYTDSVKGRFTISRDNSKNTLYLQMNSLRAEDTAVYYCARDLMGATLFDNWGQGTLVTVSS", "VL": "SYVLTQPPSVSVAPGQTARISCGGNNIGSKSVHWFQQKPGQAPVLVVYDDSDRPSGIPERFSGSNSGNTATLTISRVEAGDEADYYCQVWDSSSDHVVFGGGTKLTVL", "notes": "XenoMouse hybridoma antibody of Campaign 2 (IgG2 and IgG4 strains immunised with B300.19/human CD105 cells); also called 9H10.2"}}, "key": {"human CD105 [1]": {"target": "T1, human CD105 (human, UniProt P17813 26-658)", "T1 construct": "whole, on cells; Target as carried by HUVEC cells in the FACS assays; also called endoglin; END", "T1 sequence (looked up)": "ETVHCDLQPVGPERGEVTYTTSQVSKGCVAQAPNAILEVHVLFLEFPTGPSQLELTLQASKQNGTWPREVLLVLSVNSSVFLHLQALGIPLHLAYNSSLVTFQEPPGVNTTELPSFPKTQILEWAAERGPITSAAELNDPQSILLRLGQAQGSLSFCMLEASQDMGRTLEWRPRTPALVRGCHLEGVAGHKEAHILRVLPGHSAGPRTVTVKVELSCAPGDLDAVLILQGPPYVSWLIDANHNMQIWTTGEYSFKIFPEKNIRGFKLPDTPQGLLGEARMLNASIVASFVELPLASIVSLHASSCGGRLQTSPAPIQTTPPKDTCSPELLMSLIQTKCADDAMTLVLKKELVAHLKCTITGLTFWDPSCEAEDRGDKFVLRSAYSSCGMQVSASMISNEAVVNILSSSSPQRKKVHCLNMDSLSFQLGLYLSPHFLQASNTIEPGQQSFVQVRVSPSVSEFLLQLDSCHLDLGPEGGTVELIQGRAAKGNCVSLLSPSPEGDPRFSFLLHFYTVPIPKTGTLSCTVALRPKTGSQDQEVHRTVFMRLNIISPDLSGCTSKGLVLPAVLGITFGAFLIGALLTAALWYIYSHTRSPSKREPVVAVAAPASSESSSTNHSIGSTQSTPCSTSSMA", "assay": "FACS KD determination on HUVEC cells, 4° C., nonlinear fit of geometric mean fluorescence", "procedure": "The affinity of the anti-CD105 antibodies was determined by FACS. […] Cells were kept on ice. Purified antibodies were serially diluted in filtered 1×PBS (2×) across 11 wells in 96-well plates. The twelfth well in each row contained buffer only. Cells and 1×PBS were added to each mAb well such that the final volume was 30 μL/well and each well contained approximately 100,000 cells. Plates were placed on a plate shaker for 3 hours at 4° C., then spun and washed 3 times with PBS. A fluorochrome-labeled secondary goat α-human polyclonal antibody was added to each well in a 200 μL volume. Plates were then incubated for 40 minutes at 4° C., then spun and washed 3 times with PBS.\nThe Geometric Mean Fluorescence (GMF) of 10,000 cells for each mAb concentration was determined using a FACSCalibur instrument. A nonlinear plot of GMF as a function of molecular mAb concentration was fit using Scientist software using the equation:\nIn the above equation, F=Geometric mean fluorescence, LT=total molecular mAb concentration, P′=proportionality constant that relates arbitrary fluorescence units to bound mAb, and KD=equilibrium dissociation constant. For each mAb an estimate for KD was obtained as P′ and KD were allowed to float freely in the nonlinear analysis."}, "human CD105 [2]": {"target": "T1, human CD105", "assay": "FACS competition on HUVEC cells: unlabeled mAb at 50 ug/ml, wash, then FITC-labeled SN6 at 2 ug/ml; blocked antibody: SN6"}}}
{"binder": "B1", "values": [{"measurement": "Kd", "setting": "human CD105 [1]", "value": "< 1.15", "unit": "nM"}, {"measurement": "Max % Bloc(king) of SN6 binding", "setting": "human CD105 [2]", "value": 95.4, "unit": "%"}]}
{"binder": "B2", "values": [{"measurement": "Kd", "setting": "human CD105 [1]", "value": 2.3, "unit": "nM"}, {"measurement": "Max % Bloc(king) of SN6 binding", "setting": "human CD105 [2]", "value": 20.5, "unit": "%"}]}
{"binder": "B3", "values": [{"measurement": "Kd", "setting": "human CD105 [1]", "value": "< 0.149", "unit": "nM"}, {"measurement": "Max % Bloc(king) of SN6 binding", "setting": "human CD105 [2]", "value": 96.9, "unit": "%"}]}
{"binder": "B4", "values": [{"measurement": "Kd", "setting": "human CD105 [1]", "value": 0.77, "unit": "nM"}, {"measurement": "Max % Bloc(king) of SN6 binding", "setting": "human CD105 [2]", "value": 29.4, "unit": "%"}]}
{"binder": "B5", "values": [{"measurement": "Kd", "setting": "human CD105 [1]", "value": "< 0.748", "unit": "nM"}, {"measurement": "Max % Bloc(king) of SN6 binding", "setting": "human CD105 [2]", "value": 9, "unit": "%"}]}
{"binder": "B6", "values": [{"measurement": "Kd", "setting": "human CD105 [1]", "value": 0.622, "unit": "nM"}, {"measurement": "Max % Bloc(king) of SN6 binding", "setting": "human CD105 [2]", "value": 5.1, "unit": "%"}]}
{"binder": "B7", "values": [{"measurement": "Kd", "setting": "human CD105 [1]", "value": "< 0.717", "unit": "nM"}, {"measurement": "Max % Bloc(king) of SN6 binding", "setting": "human CD105 [2]", "value": 57, "unit": "%"}]}
{"binder": "B8", "values": [{"measurement": "Kd", "setting": "human CD105 [1]", "value": 0.338, "unit": "nM"}, {"measurement": "Max % Bloc(king) of SN6 binding", "setting": "human CD105 [2]", "value": 29.4, "unit": "%"}]}
{"binder": "B9", "values": [{"measurement": "Kd", "setting": "human CD105 [1]", "value": "< 0.584", "unit": "nM"}, {"measurement": "Max % Bloc(king) of SN6 binding", "setting": "human CD105 [2]", "value": 81.9, "unit": "%"}]}
